Assay results from patent US20190247381A1.

B1: ACOX1 (protein)
chain: MNPDLRRERDSASFNPELLTHILDGSPEKTRRRREIENMILNDPDFQHEDLNFLTRSQRYEVAVRKSAIMVKKMREFGIADPDEIMWFKKLHLVNFVEPVGLNYSMFIPTLLNQGTTAQKEKWLLSSKGLQIIGTYAQTEMGHGTHLRGLETTATYDPETQEFILNSPTVTSIKWWPGGLGKTSNHAIVLAQLITKGKCYGLHAFIVPIREIGTHKPLPGITVGDIGPKFGYDEIDNGYLKMDNHRIPRENMLMKYAQVKPDGTYVKPLSNKLTYGTMVFVRSFLVGEAARALSKACTIAIRYSAVRHQSEIKPGEPEPQILDFQTQQYKLFPLLATAYAFQFVGAYMKETYHRINEGIGQGDLSELPELHALTAGLKAFTSWTANTGIEACRMACGGHGYSHCSGLPNIYVNFTPSCTFEGENTVMMLQTARFLMKSYDQVHSGKLVCGMVSYLNDLPSQRIQPQQVAVWPTMVDINSPESLTEAYKLRAARLVEIAAKNLQKEVIHRKSKEVAWNLTSVDLVRASEAHCHYVVVKLFSEKLLKIQDKAIQAVLRSLCLLYSLYGISQNAGDFLQGSIMTEPQITQVNQRVKELLTLIRSDAVALVDAFDFQDVTLGSVLGRYDGNVYENLFEWAKNSPLNKAEVHESYKHLKSLQSKL
B2: YARS2 (protein)
chain: TLNLSVLLPLGLRKAHSGAQGLLAAQKARGLFKDFFPETGTKIELPELFDRGTASFPQTIYCGFDPTADSLHVGHLLALLGLFHLQRAGHNVIALVGGATARLGDPSGRTKEREALETERVRANARALRLGLEALAANHQQLFTDGRSWGSFTVLDNSAWYQKQHLVDFLAAVGGHFRMGTLLSRQSVQLRLKSPEGMSLAEFFYQVLQAYDFYYLFQRYGCRVQLGGSDQLGNIMSGYEFINKLTGEDVFGITVPLITSTTGAKLGKSAGNAVWLNRDKTSPFELYQFFVRQPDDSVERYLKLFTFLPLPEIDHIMQLHVKEPERRGPQKRLAAEVTKLVHGREGLDSAKRCTQALYHSSIDALEVMSDQELKELFKEAPFSEFFLDPGTSVLDTCRKANAIPDGPRGYRMITEGGVSINHQQVTNPESVLIVGQHILKNGLSLLKIGKRNFYIIKWLQL
B3: SSB (protein)
chain: MAENGDNEKMAALEAKICHQIEYYFGDFNLPRDKFLKEQIKLDEGWVPLEIMIKFNRLNRLTTDFNVIVEALSKSKAELMEISEDKTKIRRSPSKPLPEVTDEYKNDVKNRSVYIKGFPTDATLDDIKEWLEDKGQVLNIQMRRTLHKAFKGSIFVVFDSIESAKKFVETPGQKYKETDLLILFKDDYFAKKNEERKQNKVEAKLRAKQEQEAKQKLEEDAEMKSLEEKIGCLLKFSGDLDDQTCREDLHILFSNHGEIKWIDFVRGAKEGIILFKEKAKEALGKAKDANNGNLQLRNKEVTWEVLEGEVEKEALKKIIEDQQESLNKWKSKGRRFKGKGKGNKAAQPGSGKGKVQFQGKKTKFASDDEHDEHDENGATGPVKRAREETDKEEPASKQQKTENGAGDQ
B4: SERPINH1 (protein)
chain: AEVKKPAAAAAPGTAEKLSPKAATLAERSAGLAFSLYQAMAKDQAVENILVSPVVVASSLGLVSLGGKATTASQAKAVLSAEQLRDEEVHAGLGELLRSLSNSTARNVTWKLGSRLYGPSSVSFADDFVRSSKQHYNCEHSKINFRDKRSALQSINEWAAQTTDGKLPEVTKDVERTDGALLVNAMFFKPHWDEKFHHKMVDNRGFMVTRSYTVGVMMMHRTGLYNYYDDEKEKLQIVEMPLAHKLSSLIILMPHHVEPLERLEKLLTKEQLKIWMGKMQKKAVAISLPKGVVEVTHDLQKHLAGLGLTEAIDKNKADLSRMSGKKDLYLASVFHATAFELDTDGNPFDQDIYGREELRSPKLFYADHPFIFLVRDTQSGSLLFIGRLVRPKGDKMRDEL

molecular target: FLAG-HA-Atoh1 (Mus musculus (Mouse)) (UniProt P48985); test: IP-MS: immunoprecipitation of Atoh1 and its associated binding partners, excised gel band, mass spectrometry

Molecule	Total peptide
AAMP (from UniProt Q13685)	1 peptides
BCKDHA (from UniProt P12694)	5 peptides
CK1δ (CSNK1D), endogenous in 293T cells (from UniProt P48730) (enzyme)	7 peptides
CK1ε (CSNK1E), endogenous in 293T cells (from UniProt P49674) (enzyme)	6 peptides
EEF1A1 (from UniProt P68104)	103 peptides
ENO1 (from UniProt P06733)	62 peptides
PDE4B (from UniProt Q07343)	1 peptides
PRDX4 (from UniProt Q13162)	1 peptides
PRPS1 (from UniProt P60891)	3 peptides
PSMC2 (from UniProt P35998)	50 peptides
PSMC5 (from UniProt P62195)	52 peptides
RBMX (from UniProt P38159)	65 peptides
TUBA1A (from UniProt Q71U36)	112 peptides
TUBA1C (from UniProt Q9BQE3)	7 peptides
TUBA4A (from UniProt P68366)	1 peptides
TUBB2A (from UniProt Q13885)	159 peptides
TUBB2B (from UniProt Q9BVA1)	2 peptides
B1	5 peptides
B2	11 peptides
B3	65 peptides
B4	9 peptides
